Experimental data taken from IntAct's records for PubMed 18084303.

Biological target: Nlgn1, Q99K10-1
Sequence (Q99K10 whole entry): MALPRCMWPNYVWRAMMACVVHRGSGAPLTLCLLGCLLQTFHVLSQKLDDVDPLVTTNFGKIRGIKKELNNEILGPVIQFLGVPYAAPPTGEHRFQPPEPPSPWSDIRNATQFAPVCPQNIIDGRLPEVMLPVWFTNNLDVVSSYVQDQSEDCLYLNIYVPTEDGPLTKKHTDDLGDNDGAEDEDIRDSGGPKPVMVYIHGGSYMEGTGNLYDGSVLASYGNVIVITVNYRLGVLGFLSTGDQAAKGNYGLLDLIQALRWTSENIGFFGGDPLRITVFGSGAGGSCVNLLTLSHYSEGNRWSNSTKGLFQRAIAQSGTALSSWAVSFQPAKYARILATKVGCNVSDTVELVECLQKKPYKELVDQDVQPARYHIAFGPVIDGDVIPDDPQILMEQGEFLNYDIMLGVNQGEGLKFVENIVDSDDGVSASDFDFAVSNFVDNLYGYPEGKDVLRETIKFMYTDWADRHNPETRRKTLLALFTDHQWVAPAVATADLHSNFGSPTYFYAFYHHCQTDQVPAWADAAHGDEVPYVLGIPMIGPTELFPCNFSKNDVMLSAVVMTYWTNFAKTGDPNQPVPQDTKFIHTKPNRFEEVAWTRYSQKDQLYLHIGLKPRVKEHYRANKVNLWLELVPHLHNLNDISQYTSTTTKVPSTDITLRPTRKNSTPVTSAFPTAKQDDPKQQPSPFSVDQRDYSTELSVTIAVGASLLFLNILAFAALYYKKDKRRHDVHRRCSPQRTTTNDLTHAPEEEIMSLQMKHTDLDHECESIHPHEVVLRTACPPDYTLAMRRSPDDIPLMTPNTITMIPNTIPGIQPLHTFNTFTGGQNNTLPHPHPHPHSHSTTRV

Sequence of Neurexin-1-beta (Homo sapiens), P58400-1 D141S (P58400 other isoform, or with tags, fused parts or gaps D141S): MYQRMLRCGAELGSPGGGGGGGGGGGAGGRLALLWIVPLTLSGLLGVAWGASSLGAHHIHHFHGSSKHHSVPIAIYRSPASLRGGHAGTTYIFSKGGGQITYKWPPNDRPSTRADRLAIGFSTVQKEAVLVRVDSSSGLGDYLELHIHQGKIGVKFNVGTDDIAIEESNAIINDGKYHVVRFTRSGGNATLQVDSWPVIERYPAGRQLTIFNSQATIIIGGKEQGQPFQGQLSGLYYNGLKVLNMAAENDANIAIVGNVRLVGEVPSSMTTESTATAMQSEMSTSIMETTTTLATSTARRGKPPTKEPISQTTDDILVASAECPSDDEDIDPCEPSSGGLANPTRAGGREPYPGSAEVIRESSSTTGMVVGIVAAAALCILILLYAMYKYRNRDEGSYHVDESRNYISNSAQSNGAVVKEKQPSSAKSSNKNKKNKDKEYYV
Sequence of Neurexin-1-beta (Homo sapiens), P58400-1 L240R (P58400 other isoform, or with tags, fused parts or gaps L240R): as the sequence (P58400 other isoform, or with tags, fused parts or gaps D141S) above
Sequence of Neurexin-1-beta (Homo sapiens), P58400-1 L139R (P58400 other isoform, or with tags, fused parts or gaps L139R): as the sequence (P58400 other isoform, or with tags, fused parts or gaps D141S) above
Sequence of Neurexin-1-beta (Homo sapiens), P58400-1 S111R (P58400 other isoform, or with tags, fused parts or gaps S111R): as the sequence (P58400 other isoform, or with tags, fused parts or gaps D141S) above

Substance	effect of a mutation on the interaction
Neurexin-1-beta (Homo sapiens), P58400-1 D141S	disrupting interaction
Neurexin-1-beta (Homo sapiens), P58400-1 L139R	disrupting interaction
Neurexin-1-beta (Homo sapiens), P58400-1 L240R	disrupting interaction
Neurexin-1-beta (Homo sapiens), P58400-1 S111R	disrupting interaction
